Reference: article PMC4760221, “Phosphorylation Regulates the Endocytic Function of the Yeast Dynamin-Related Protein Vps1” (Molecular and Cellular Biology, 2015)
Numbering of substitutions follows the chain as printed. Names and notes keep the numbering of the source.

B1: His-tagged Vps1 wild type (natural protein, S. cerevisiae, UniProt P21576 1-704, looked up)
chain: MDEHLISTINKLQDALAPLGGGSQSPIDLPQITVVGSQSSGKSSVLENIVGRDFLPRGTGIVTRRPLVLQLINRRPKKSEHAKVNQTANELIDLNINDDDKKKDESGKHQNEGQSEDNKEEWGEFLHLPGKKFYNFDEIRKEIVKETDKVTGANSGISSVPINLRIYSPHVLTLTLVDLPGLTKVPVGDQPPDIERQIKDMLLKYISKPNAIILSVNAANTDLANSDGLKLAREVDPEGTRTIGVLTKVDLMDQGTDVIDILAGRVIPLRYGYIPVINRGQKDIEHKKTIREALENERKFFENHPSYSSKAHYCGTPYLAKKLNSILLHHIRQTLPEIKAKIEATLKKYQNELINLGPETMDSASSVVLSMITDFSNEYAGILDGEAKELSSQELSGGARISYVFHETFKNGVDSLDPFDQIKDSDIRTIMYNSSGSAPSLFVGTEAFEVLVKQQIRRFEEPSLRLVTLVFDELVRMLKQIISQPKYSRYPALREAISNQFIQFLKDATIPTNEFVVDIIKAEQTYINTAHPDLLKGSQAMVMVEEKLHPRQVAVDPKTGKPLPTQPSSSKAPVMEEKSGFFGGFFSTKNKKKLAALESPPPVLKATGQMTERETMETEVIKLLISSYFSIVKRTIADIIPKALMLKLIVKSKTDIQKVLLEKLYGKQDIEELTKENDITIQRRKECKKMVEILRNASQIVSSV
notes: Vps1, dynamin-related protein of S. cerevisiae; also called recombinant Vps1; wild-type Vps1
B2: His-tagged Vps1 S599V (natural protein, S. cerevisiae, UniProt P21576 1-704, looked up)
chain: B1 chain with S599V
notes: Vps1, dynamin-related protein of S. cerevisiae, with S599V; also called S599V mutant; pKA971
B3: His-tagged Vps1 S599D (natural protein, S. cerevisiae, UniProt P21576 1-704, looked up)
chain: B1 chain with S599D
notes: Vps1, dynamin-related protein of S. cerevisiae, with S599D; also called S599D mutant; pKA972

Molecular target: the molecule itself
Assay: negative-stain transmission electron microscopy; purified recombinant Vps1; oligomeric single rings and double-ring structures seen after negative staining

Binding result, binds:
B1
B2
B3
